The target in series [1] is Metallothiol transferase FosB (Staphylococcus aureus) (UniProt Q5HDM4). Description: Inhibition of Staphylococcus aureus FosB using L-cysteine as substrate by absorbance based DTNB assay.
Series [2] concerns C[C@H](CO)P(=O)(O)O. Nature of the series: (§1) Binding affinity to Staphylococcus aureus FosB using L-cysteine as substrate assessed as Kcat/Km by DTNB assay based michaelis-menton analysis (reference value: 10.33 /mM/s).
For series [3], the system named is CC[C@@H](O)P(=O)(O)O. Described as §1.
In series [4] the test system is O=C(O)CP(=O)(O)O. The series is described as §1.
The subject of series [5] is C[C@@H](C(=O)O)P(=O)(O)O. Described as §1.
The test system of series [6] is CC(C)[C@H](O)P(=O)(O)O. Described as §1.
Series [7] concerns C[C@H](CO)P(=O)(O)O. Nature of the series: (§2) Binding affinity to Staphylococcus aureus FosB using L-cysteine as substrate assessed as catalytic constant by DTNB assay based michaelis-menton analysis (reference value: 2.95 /s).
Series [8] concerns CC[C@@H](O)P(=O)(O)O. The description is as §2.
Series [9] concerns O=C(O)CP(=O)(O)O. Described as §2.
Series [10] relates to C[C@@H](C(=O)O)P(=O)(O)O. The description is as §2.
For series [11], the system named is CC(C)[C@H](O)P(=O)(O)O. The description is as §2.
Series [12] concerns C[C@H](CO)P(=O)(O)O. Description: (§3) Binding affinity to Staphylococcus aureus FosB using L-cysteine as substrate assessed as Km by DTNB assay based michaelis-menton analysis (reference value: 0.29 +/- 0.03 mM).
For series [13], the system named is CC[C@@H](O)P(=O)(O)O. The description is as §3.
The subject of series [14] is O=C(O)CP(=O)(O)O. The description is as §3.
Series [15] has as its system C[C@@H](C(=O)O)P(=O)(O)O. The series is described as §3.
The subject of series [16] is CC(C)[C@H](O)P(=O)(O)O. Described as §3.

Activity calls are given as the source filed them. The rule behind the calls is not given here.

Sequence of Metallothiol transferase FosB (Staphylococcus aureus), Q5HDM4 (Q5HDM4 whole entry): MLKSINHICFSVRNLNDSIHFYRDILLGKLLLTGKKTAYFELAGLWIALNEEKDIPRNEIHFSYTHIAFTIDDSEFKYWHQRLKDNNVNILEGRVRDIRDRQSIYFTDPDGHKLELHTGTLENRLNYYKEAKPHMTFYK
Sequence of Metallothiol transferase FosB (Staphylococcus aureus) (Q5HDM4 whole entry): as above

`O=C(O)CCP(=O)(O)O`: the inhibition entry in series [1] was “inactive”.
On the same count and under the same terms, the entry for `O=P(O)(O)CCP(=O)(O)O` is “inactive”.
The same measure, in the same setting: the entry for `CC(C(=O)O)C(=O)O` is “inactive”.
As a reminder, the kcat/Km is the second-order rate constant that governs catalysis at low substrate concentration. One may read the kcat as the maximal rate divided by the concentration of active sites. A word on the Km: it is the concentration of substrate that gives half-maximal velocity. In the case of “Metallothiol transferase FosB (Staphylococcus aureus), Q5HDM4”, the kcat/Km in the series on C[C@H](CO)P(=O)(O)O [2] is 10600 M⁻¹ s⁻¹; with CC[C@@H](O)P(=O)(O)O [3], 11400 M⁻¹ s⁻¹; with O=C(O)CP(=O)(O)O [4], 11800 M⁻¹ s⁻¹; with C[C@@H](C(=O)O)P(=O)(O)O [5], 11400 M⁻¹ s⁻¹; in the series on CC(C)[C@H](O)P(=O)(O)O [6], 11200 M⁻¹ s⁻¹. Besides, the kcat was 2.91 s⁻¹ in the series on C[C@H](CO)P(=O)(O)O [7]; 2.82 s⁻¹ in the series with CC[C@@H](O)P(=O)(O)O [8]; 2.83 s⁻¹ in the series on O=C(O)CP(=O)(O)O [9]; 2.84 s⁻¹ in the series with C[C@@H](C(=O)O)P(=O)(O)O [10]; 2.84 s⁻¹ in the series with CC(C)[C@H](O)P(=O)(O)O [11]. In addition, the Km in the series on C[C@H](CO)P(=O)(O)O [12] came to 270 µM; in the series with CC[C@@H](O)P(=O)(O)O [13], 250 µM; with O=C(O)CP(=O)(O)O [14], 240 µM; with C[C@@H](C(=O)O)P(=O)(O)O [15] it was 250 µM; in the series with CC(C)[C@H](O)P(=O)(O)O [16], 250 µM.

Values taken from ChEMBL document CHEMBL5346942, “Identification and analysis of small molecule inhibitors of FosB from Staphylococcus aureus” (RSC Med Chem, 2023).
